Test results reported in patent publication US20050244828A1.

Target: CD22-Fc fusion protein (extra-cellular domain of human CD22 fused to human IgG Fc) (human) (UniProt P20273)

In the case of “BL22, a recombinant immunotoxin containing the FV domains of RFB4 fused to PE38, a truncated form of (from UniProt P11439 278-638)”, the percent inhibition of measured sCD22 level is reported as 50%.
